assay: yeast display, Sf9 membrane polyspecificity reagent, FACS + sequencing; frameworks hold sequencing errors
Method in brief: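 Synthetic nanobody libraries on Saccharomyces cerevisiae BJ5465 were galactose-induced for 36–48 hours, stained 1 hour at 4 °C with 10% biotinylated, detergent-solubilized Sf9 membrane reagent and enriched on streptavidin microbeads. FACS then separated cells into low and high (top ~1%) gates by anti-HA (expression) and streptavidin (reagent binding) fluorescence. Genes were colony-PCR amplified, MiSeq 2 × 250 sequenced and CDR-length filtered. A clone's polyreactivity label is that of its gate of origin.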

| Sequence | polyreactivity (PSR sort gate) |
| --- | --- |
| QVQLVESGGGLVQAGGSLRLSCAASGFTFFTYTMGWYRQAPGKERELVAAISRDGARTNYADSVKGRFTISRDNAKNTVYLQMNSLKPEDTAVYYCAAPTSHLYTEKYDYWGQGTQVTVSS | high polyreactivity |
| QVQLVESGGGLVQAGGSLRLSCAASGFTFFVYAMGWYRQAPGKERELVATINWSGASTYYADSVKGRFTISRDNAKNTVYLQMKSLKPEDTAVYYCAKDGHYPLVYLAFDYWGQGTQVTVSS | low polyreactivity |
| QVQLVESGGGLVQAGGSLRLSCAASGFTFFVYAMGWYRQAPGKERELVAVITSGGTTNYADSVKGRFTISRDNAKNTVYLQMNSLKPEDTAVYYCNARGEKRGYYYWGQGTQVTVSS | high polyreactivity |
| QVQLVESGGGLVQAGGSLRLSCAASGFTFGAYAKGWSRQAPGKEWELVASISWSGTSTYYADSVKGRFTISRDNAKNTVYLQMNSLKPEDTAVYYCAAGYRSTRYDYWGQGTQVTVSS | high polyreactivity |
| QVQLVESGGGLVQAGGSLRLSCAASGFTFGDNAMGWYRQAPWKERELVADIDSDGSTYYADSVKGRFTISRDNAKNTFYLEMNSLKPEDNAVYYCAKDQYYSLGPYSFGFDYWGQGTQVNVSS | low polyreactivity |
| QVQLVESGGGLVQAGGSLRLSCAASGFTFGDYAMGWYRQAPGKERELVAAISRSGSNTYYADSVKGRFTISRDNAKNTVYLQMNSQKPEDTAVYYCNADYDPEDMDYWGQGTQVTVSS | low polyreactivity |
| QVQLVESGGGLVQAGGSLRLSCAASGFTFGDYAMGWYRQAPRKERELVAAISKRGGRTFYADSVKGRFTISRDNAKNTVYLQMNSLKPEDTAVYYCAKAGSFDYDYWGQGTQVTVSS | high polyreactivity |
| QVQLVESGGGLVQAGGSLRLSCAASGFTFGEYAMGWYRQAPGKEREFVAAISATGGSTYYADSVKGRFTISRDNAKNTVYLQMNSLKPEDTAVYYCAARDAYYDGYDYWGQGTQVTVSS | low polyreactivity |
| QVQLVESGGGLVQAGGSLRLSCAASGFTFGFNAMGWYRQAPGKEREFVASITYRGGSTYYADSVKGRFTISRDNAKNTVYLQMNSLKPEDTAVYYCAAASPWRRYISDYWGQGTQVTVSS | high polyreactivity |
| QVQLVESGGGLVQAGGSLRLSCAASGFTFGFYAMGWYIQAPGNERELVASITTRGGSTRYADSVKGRFTISRDNAKNTVYLQMNSLKPEDTAVYYCAAQYSYVRYLKRGYGYWGQGTQVTVSS | high polyreactivity |
| QVQLVESGGGLVQAGGSLRLSCAASGFTFGGYAMGWYRQAPGKERELVAAISGRGGRTYYADSVKGRFTISRDNAKNTVYLQMNSLKPEDTAVYYCAAPTNHWTLLSGDYWGQGTQVTVSS | high polyreactivity |
| QVQLVESGGGLVQAGGSLRLSCAASGFTFGGYAMGWYRQAPGKERELVAAISRSGGSTYYADSVKGRFIISRDNAKNTVYLQMNSLKPEDTAVYYCAAKTVSRARLYDYWGQGTQVTVSS | high polyreactivity |
| QVQLVESGGGLVQAGGSLRLSCAASGFTFGINAMGWYRQAPGKERELVAAINQSGDRTYYADSVKGRFTISRDNAKNTVYLQMNSLKPEDTAVYYCAGPSYWGGGRYRYGYWGQGTQVTVSS | high polyreactivity |
| QVQLVESGGGLVQAGGSLRLSCAASGFTFGNNGMGWYRQAPGKERELVATISWSGGSTYADSVKGRFTISRDNAKNTVYLQMNSLKPEDTAVYYCAAPYLSLYWYDYWGQGTQVTVSS | low polyreactivity |
| QVQLVESGGGLVQAGGSLRLSCAASGFTFGPYAMGWYRQAPGKERELVAAIRSGGSTNYADSVKGRFTISRDNAKNTVYLQMNSLKPEDTAVYYCAAGYRRGWVTMGYWGQGTQVTVSS | high polyreactivity |
| QVQLVESGGGLVQAGGSLRLSCAASGFTFGRYAMGWYRQAPGKERELVAAISSSGSSTYYADSVKGRFTLSRDNAKNTVYLQMNSLKPEDTAVYYCNTRCRKHPSSYPYDYWGQGTQVTVSS | high polyreactivity |
| QVQLVESGGGLVQAGGSLRLSCAASGFTFGRYAMGWYRQAPGKERELVATITRSGVNTYYADSVKGRFTISRDNAKNTVYLQMNSLKPEDTAVYYCAAVEIWYWGFTQYEYWGQGTQVTVSS | high polyreactivity |
| QVQLVESGGGLVQAGGSLRLSCAASGFTFGSNDMGWYRQAPVKERELVAAIDGSGDTYYADSVKGRFTISRDNAKNTVYLQMNSLKPEDTAVYYCAAGYTYYSLYGYWGQGTQVTVSS | low polyreactivity |
| QVQLVESGGGLVQAGGSLRLSCAASGFTFGSYAMGWYIQAPGKERELVARISSDGSTNYADSVKGRFTISRDNAKNTVYLQMNSLKPEDTAVYYSARDRKRQADDIGEFDYWGQGTQVTVSS | low polyreactivity |
| QVQLVESGGGLVQAGGSLRLSCAASGFTFGSYAMGWYRQAPGKERELVAAISWGGGSTYYADSVKGRFTISRDNAKNTVYLQMNSLKPEDTAVYYCNADAISSFGYWGQGTQVTVSS | high polyreactivity |
| QVQLVESGGGLVQAGGSLRLSCAASGFTFGVYAMGWYRPAPGKERELVAAITSGGGRTYADSVKGRFTISRDNAKNTVYLQMNSLKTEDTADYYCAAEGVPLRVVLDYSYWDYDYDYWGQGTQVTVSS | low polyreactivity |

| Sequence | polyreactivity (PSR sort gate) |
| --- | --- |
| QVQLVESGGGLVQAGGSLRLSCAASGFTFGWYAMGWDIQAPGKERELLATISWSGSSTYYADSVKGLFTISRDNAKNTVYLQMNSLKPEDTAVYYCNAVYGGFVVLRYDYWGQGTQVTVSS | high polyreactivity |
| QVQLVESGGGLVQAGGSLRLSCAASGFTFGWYAMGWYRQAPGKEREFVAAISRSGGSTYYADSVKGRFTISRDNAKNTVYLQMNSLKPEDTAVYYCAAYIIGDTHAEYDYWGQGTQVTVSS | high polyreactivity |
| QVQLVESGGGLVQAGGSLRLSCAASGFTFGWYTMGWYRQAPGKERELDAAISLNGGSTYYADSVKGRFTISRDNAKNTVYLQMTSLKPEDTAVYYCAIRYRWPYYPYVYWGQGTQVTVSS | low polyreactivity |
| QVQLVESGGGLVQAGGSLRLSCAASGFTFGYNAMGWYRQAPGKERELVAAISSSGGSTYYADSVKGRFTISRDNAKNTVYLQMNSLKPEDTAVYYCAKRTPRKWGQGTQVTVSS | high polyreactivity |
| QVQLVESGGGLVQAGGSLRLSCAASGFTFGYNAMGWYRQAPGKERELVAAITSGGSTNYADSVKGRFTISRDNAKNTVYLQMNSLKPEDTAVYYCAVDPVRGRDYSWMDYWGQGTQVTVSS | low polyreactivity |
| QVQLVESGGGLVQAGGSLRLSCAASGFTFGYNDMGWYRQATGKVRELVAGIRSGDDTNYADSVKGRFTISRDNAKNTVYLQMNSLKPEDTAVYYCAVGYGDYLYYDYDYWGQGTQVTVSS | low polyreactivity |
| QVQLVESGGGLVQAGGSLRLSCAASGFTFGYNTMGWYRQAPGNERELGAAISWRGGSTFYADSVKGRFTISRDNAKNTVYLQMNSLKPEDTAVYYCNVLRLDQRYPSLRDDWGQGTQVTVSS | high polyreactivity |
| QVQLVESGGGLVQAGGSLRLSCAASGFTFGYYAMGWYRQAPGKERELVAAINWSGVNTNYADSVKGRFTISRDNAKNTVYLQMNSLKPEDTAVYYCAADAGYDGYGYWGQGTQVTVSS | low polyreactivity |
| QVQLVESGGGLVQAGGSLRLSCAASGFTFGYYAMGWYRQAPGKERELVAAISSSGGRTYYADSVKGRFTISRDNAKNTVYLQMNSMKPEDTAVYYCAAVYIRYPIQYSLLRYDYWGQGTQVTVSA | high polyreactivity |
| QVQLVESGGGLVQAGGSLRLSCAASGFTFGYYAMGWYRQAPGKERELVAAITFRGGRTYYADSVKGRFTISRDNAKNTVYLQMNSLKPEDTAVYYCAALSLVRYYHNANYYPYYYWGQGTQVTVSS | high polyreactivity |
| QVQLVESGGGLVQAGGSLRLSCAASGFTFGYYAMGWYRQAPGKERELVATITSSGASTYADSVKGRFTISRDNAKNTVYLQMNSLKPEDTAVYYCAADRLPSYWSWYGYDYWGQGTQVTVSS | high polyreactivity |
| QVQLVESGGGLVQAGGSLRLSCAASGFTFGYYAMGWYRQAPGKEREVVAAIRGGGRTNYADSVKGRFTISRDNAKITVYLQMNSLKPEDTAVYYCNADRLRTLRGDDWGQGSQVTVSS | low polyreactivity |
| QVQLVESGGGLVQAGGSLRLSCAASGFTFGYYDMGWYRQAPGKERELVAAISSSDVSTYADSVKGRFTISRDNAKNTVYLQMNSLKPEDTAVYYCAADFWYSYYYWGQGTQVTVSS | high polyreactivity |
| QVQLVESGGGLVQAGGSLRLSCAASGFTFGYYGMGSYRQAPGKERELVAAISWSGGSTYYADSVKGRFTISRDNAKNTVYLQMNSLKPEDTAVYYCAASAGYASNYWGQGTQVTVSS | low polyreactivity |
| QVQLVESGGGLVQAGGSLRLSCAASGFTFGYYTMGWYRQAPGKERELVAAISWSGGSTYYADSVKGRFTISRDNAKNTVYLQMNSLKPEDTAVYYCAAYRYGYDYWGQGTQVTVSS | high polyreactivity |
| QVQLVESGGGLVQAGGSLRLSCAASGFTFHHYAMGWYRQAPGKERELVAAITRSGGTTYYADSVKGRFTISRDNAKNTVYLQMNRLKPEDTAVYYCAADTGAKRYYRYDYWGQGTQVTVSS | high polyreactivity |
| QVQLVESGGGLVQAGGSLRLSCAASGFTFHKNAMGWYRQAPGKERELVAAITYRGGSTSYADSVKGRFTISRDNAKNTFYLQMNSLKPEDTAVYYCAAELRPYITYDGPRKKFYYWGQGTQVTVSS | high polyreactivity |
| QVQLVESGGGLVQAGGSLRLSCAASGFTFHKYAMGWYRQAPGKERELVAAISWSGDRTYYADSVKGRFTISRDNAKNTVYLQMNSLKPEDTAVYYCAAATRYSFYIKYDYWGQGTQVTVSS | high polyreactivity |
| QVQLVESGGGLVQAGGSLRLSCAASGFTFHNNVMGWYRQAPGKEMELVATISKSGGSTYYADSVKGRFTISRDNAKNTVYLQMNSLKPEDTAVYYCARSYRDYGRYGYWGQGTQVTVSS | high polyreactivity |
| QVQLVESGGGLVQAGGSLRLSCAASGFTFHYNAMGWYRQAPRKEREFVAAISGSGDRTYYADSVKGRFTISRDNAKNTVYLQMNSLKPEDTAVYYCATSVRQNYFYSYDYWGQGTQVTVSS | high polyreactivity |

Source: the nanobody polyreactivity screen of Harvey et al. (2022)
